Assay results taken from article doi:10.1101/2024.11.03.621760 (bioRxiv, 2024).

Target: the molecule itself
Experiment: crystal structure; HALC3_919 alone, 2.1 Å, space group P 21 3, PDB 9C7Z

B1: HALC3_919 (designed binder)
chain: MSGSEELLEELRELLERLQELLELIEQGKITPEQLREAIALLIEVLQILYEALRELAEQLQRLREELG
notes: also called HALC3_919 trimerization domain; source: E. coli, purified (Ni-NTA, SNAC cleavage, SEC)
In the case of B1, the “stoichiometry N” value is reported as 3.
